{"source": "patent US20160031992A1", "binders": {"B1": {"name": "humanized 1A8 antibody VH1/Vκ1 (antibody, IgG1, V domains shown)", "VH": "QVQFVQSGPELKKPGASVKVSCKGSSYTFTDYTMHWVKLAHAKTLEWIGVIDTYYGKTNYNQKFEGRATMTVDKSSSTAYMELARLRSEDSAVYYCARGGFRRGDRPSLRYAMDSWGQGTSVTVSS", "VL": "DIVLTQSPDSLAVSLGERATINCRASQSVSISTYSYIHWFQQKPGQPPKLLIKYASNLESGVPDRFSGSGSGTDFTLNIHPVEEEDVGIYYCQHSWEIPYTFGGGTKVEIK"}, "B2": {"name": "humanized 1A8 antibody VH4/Vκ1 (antibody, IgG1, V domains shown)", "VH": "B1 VH with F4L, P9A, L11V, K38R, H41S, M70I, A84S, R85S, S91T, S121L", "VL": "B1 VL"}, "B3": {"name": "humanized 1A8 antibody VH2/Vκ3 (antibody, IgG1, V domains shown)", "VH": "B1 VH with F4L, P9A, L11V, H41S, A84S, R85S, S91T, S121L", "VL": "B1 VL with L4M, N78K, H80S, P81R, E84A"}, "B4": {"name": "humanized 1A8 antibody VH3/Vκ3 (antibody, IgG1, V domains shown)", "VH": "B1 VH with F4L, P9A, L11V, K38R, H41S, A84S, R85S, S91T, S121L", "VL": "B1 VL with L4M, N78K, H80S, P81R, E84A"}, "B5": {"name": "humanized 1A8 antibody VH2/Vκ1 (antibody, IgG1, V domains shown)", "VH": "B1 VH with F4L, P9A, L11V, H41S, A84S, R85S, S91T, S121L", "VL": "B1 VL"}, "B6": {"name": "humanized 1A8 antibody VH2/Vκ2 (antibody, IgG1, V domains shown)", "VH": "B1 VH with F4L, P9A, L11V, H41S, A84S, R85S, S91T, S121L", "VL": "B1 VL with N78K, H80S, P81R"}, "B7": {"name": "humanized 1A8 antibody VH4/Vκ3 (antibody, IgG1, V domains shown)", "VH": "B1 VH with F4L, P9A, L11V, K38R, H41S, M70I, A84S, R85S, S91T, S121L", "VL": "B1 VL with L4M, N78K, H80S, P81R, E84A"}, "B8": {"name": "humanized 1A8 antibody VH4/Vκ2 (antibody, IgG1, V domains shown)", "VH": "B1 VH with F4L, P9A, L11V, K38R, H41S, M70I, A84S, R85S, S91T, S121L", "VL": "B1 VL with N78K, H80S, P81R"}, "B9": {"name": "humanized 1A8 antibody VH3/Vκ1 (antibody, IgG1, V domains shown)", "VH": "B1 VH with F4L, P9A, L11V, K38R, H41S, A84S, R85S, S91T, S121L", "VL": "B1 VL"}, "B10": {"name": "humanized 1A8 antibody VH1/Vκ2 (antibody, IgG1, V domains shown)", "VH": "B1 VH", "VL": "B1 VL with N78K, H80S, P81R"}, "B11": {"name": "humanized 1A8 antibody VH1/Vκ3 (antibody, IgG1, V domains shown)", "VH": "B1 VH", "VL": "B1 VL with L4M, N78K, H80S, P81R, E84A"}}, "note": "Positions count from the first letter of the chain named."}
{"molecular_target": "biotinylated αvβ6", "assay": "inhibition of biotinylated αvβ6 binding to plate-coated LAP, streptavidin-HRP"}
{"binder": "B1", "IC50 relative to chimeric antibody (ratio to chimeric antibody)": 1.02}
{"binder": "B2", "IC50 relative to chimeric antibody (ratio to chimeric antibody)": 1.93}
{"binder": "B3", "IC50 relative to chimeric antibody (ratio to chimeric antibody)": 0.98}
{"binder": "B4", "IC50 relative to chimeric antibody (ratio to chimeric antibody)": 1.2}
{"binder": "B5", "IC50 relative to chimeric antibody (ratio to chimeric antibody)": 1.48}
{"binder": "B6", "IC50 relative to chimeric antibody (ratio to chimeric antibody)": 1.32}
{"binder": "B7", "IC50 relative to chimeric antibody (ratio to chimeric antibody)": 1.74}
{"binder": "B8", "IC50 relative to chimeric antibody (ratio to chimeric antibody)": 2.3}
{"binder": "B9", "IC50 relative to chimeric antibody (ratio to chimeric antibody)": 1.07}
{"binder": "B10", "IC50 relative to chimeric antibody (ratio to chimeric antibody)": 1.19}
{"binder": "B11", "IC50 relative to chimeric antibody (ratio to chimeric antibody)": 1.05}
{"molecular_target": "integrin αvβ6 on NIH3T3β6 cells (NIH3T3 cells transfected with β6)", "assay": "FACS on NIH3T3β6 cells, geometric MFI against antibody concentration"}
{"binder": "B1", "EC50 relative to chimeric antibody (ratio to chimeric antibody)": 1.13}
{"binder": "B2", "EC50 relative to chimeric antibody (ratio to chimeric antibody)": 3.57}
{"binder": "B3", "EC50 relative to chimeric antibody (ratio to chimeric antibody)": 2.46}
{"binder": "B4", "EC50 relative to chimeric antibody (ratio to chimeric antibody)": 2.41}
{"binder": "B5", "EC50 relative to chimeric antibody (ratio to chimeric antibody)": 3}
{"binder": "B6", "EC50 relative to chimeric antibody (ratio to chimeric antibody)": 2.4}
{"binder": "B7", "EC50 relative to chimeric antibody (ratio to chimeric antibody)": 2.96}
{"binder": "B8", "EC50 relative to chimeric antibody (ratio to chimeric antibody)": 3.24}
{"binder": "B9", "EC50 relative to chimeric antibody (ratio to chimeric antibody)": 2.86}
{"binder": "B10", "EC50 relative to chimeric antibody (ratio to chimeric antibody)": 1.07}
{"binder": "B11", "EC50 relative to chimeric antibody (ratio to chimeric antibody)": 1.04}
